For assay [1], the target named is T1, human protein C (PC) zymogen (human, UniProt P04070 43-197; P04070 200-461).
T1 construct: Bought
The assay is described as follows: ELISA screen, PC-coated wells, OD450, n=2 [Continued]. A general note: ELISA stands for enzyme-linked immunosorbent assay.

In assay [2] the target is T2, human APC-PPACK (active site-blocked APC) (human, UniProt P04070 43-461, active site bound by the tripeptide inhibitor Phe-Pro-Arg-chloromethylketone (PPACK)).
T2 construct: Bought (Haematologic Technologies)
The assay is described as follows: ELISA.

T1 sequence (P04070 43-197, chain 1 of 2): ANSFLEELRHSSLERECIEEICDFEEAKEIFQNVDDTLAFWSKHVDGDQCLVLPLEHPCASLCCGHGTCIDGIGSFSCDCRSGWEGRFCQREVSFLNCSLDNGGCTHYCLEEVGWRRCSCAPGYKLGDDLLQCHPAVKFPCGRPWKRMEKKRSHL
T1 sequence (P04070 200-461, chain 2 of 2): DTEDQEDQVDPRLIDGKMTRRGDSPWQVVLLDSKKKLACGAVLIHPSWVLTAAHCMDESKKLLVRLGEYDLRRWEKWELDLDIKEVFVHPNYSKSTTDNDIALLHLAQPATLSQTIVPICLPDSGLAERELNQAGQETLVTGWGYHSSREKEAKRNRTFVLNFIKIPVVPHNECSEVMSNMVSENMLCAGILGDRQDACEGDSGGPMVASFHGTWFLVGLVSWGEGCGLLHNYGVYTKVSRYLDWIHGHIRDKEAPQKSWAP
T2 sequence (P04070 other isoform, or with tags, fused parts or gaps): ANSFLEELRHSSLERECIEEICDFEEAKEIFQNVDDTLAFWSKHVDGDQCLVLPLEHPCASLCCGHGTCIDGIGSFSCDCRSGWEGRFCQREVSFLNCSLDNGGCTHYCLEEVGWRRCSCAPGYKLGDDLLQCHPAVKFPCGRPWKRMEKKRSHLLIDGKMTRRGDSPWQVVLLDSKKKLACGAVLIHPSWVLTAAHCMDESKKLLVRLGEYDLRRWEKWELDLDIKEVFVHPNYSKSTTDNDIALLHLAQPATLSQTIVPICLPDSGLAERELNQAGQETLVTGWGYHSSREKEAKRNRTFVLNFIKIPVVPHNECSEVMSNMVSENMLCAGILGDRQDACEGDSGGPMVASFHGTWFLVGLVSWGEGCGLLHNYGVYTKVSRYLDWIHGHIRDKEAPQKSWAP

B1: SR16983-R2-P4-G06 (VHH)
VHH: EVQLVESGGGLVQAGGSLRLSCTTSGSTFSITAGGWYRQAPGKQRELVADIANDGSTTYADSVKGRFTISRDNAKNTVELQMSSLKLEDTAVYLCFVVGISDSTPRPRAYWGQGTQVTVSS
For the molecule B1, the values for the binding result in assay [1] and in assay [2] were “no binding” and “binds”, respectively.

B2: SR16983-R3P2A07 (VHH)
VHH: QVQLVESGGRLVQAGGSLRLSCAASGRTSSNYAMGWFRQAPGKERRFVAGISRDGADTSYADSVKGRFTILRDRSKNTADLQMNSLKPEDTAIYYCAAARGIYGEISRYTGDYESWGQGTQVTVSS
For the molecule B2, the binding result is “no binding” in assay [1] and “binds” in assay [2].

B3: SR16983-R3-P4-H10 (VHH)
VHH: QVQLVESGGGLVQAGGSLRLSCAASGLTSSTYVMAWFRQAPGKEREFVSVIDSRGDTTYANSVKGRFTTSRDFGKNTVYLQMNSLQPEDTALYYCAARASPAYVARLYAYWGRGTQVTVSS
Turning to B3, the binding result in assay [1] is recorded as “no binding”; in assay [2], “binds”.

B4: SR16983-R2-P2-A08 (VHH)
VHH: QVQLVESGGGVVQAGGSLRLSCAASGLTSSTYVMAWFRQAPGKEREFVSVIDSRGDTTYAKSVKGRFSISRDNGKNAVYLQMNSLQPEDTALYYCAARASASYVARMYAYWGRGTQVTVSS
For the molecule B4, the binding result in assay [1] is on record as “no binding”; in assay [2], “binds”.

B5: SR16983-R3-P4-A07 (VHH)
VHH: QVQLVESGGGLVQAGGSLRLSCAASGRTFVGSYVMGWFRQAPGKEREFVAASSRSTGNTVYLDSVKGRFTVSRDDAKNTLYLQMNSLKPEDTAVYYCATRASINYNYAAWPYWGQGTQVTVSS
As for B5, the binding result is on record as “no binding” in assay [1] and “binds” in assay [2].

B6: SR16983-R3-P3-G05 (VHH)
VHH: QLQLVESGGGLVQAGGSLRLSCAASGFTLDDYAIGWFRQAPGKEREGVSCIASSDGSTYYADSVKGRFTISTDNAKNTVYLQMNSLKPEDTAVYYCARGGLLLPKPELFDSWGQGTQVTVSS
B6: the values for the binding result in assay [1] and in assay [2] were “no binding” and “binds”, respectively.

B7: SR16983-R3-P4-A05 (VHH)
VHH: QLQLVESGGGLVQAGGSLRLSCAASGFTLDDYAIGWFRQAPGKEREGVSCIATSDGSTYYADSVKGRFTISSDAAKNTVYLQMDSLKPEDTAVYYCARGGLLLPKPELFDGWGQGTQVTVST
For the molecule B7, the binding result in assay [1] is “no binding”; in assay [2] it was “binds”.

B8: SR16983-R3-P3-A12 (VHH)
VHH: QLQLVESGGGLVQPGGSLRLSCAVSGFTLDDYAIGWFRQAPGKEREGVSSIATSDGSTYYADSVKGRFTISSDNAKNTVYLQMNSLKPEDTAVYYCARGGLLLPRPELYEYWGQGTQVTVSS
Regarding B8, the binding result in assay [1] is on record as “no binding”; in assay [2], “binds”.

B9: SR16983-R3-P2-D12 (VHH)
VHH: QLQLVESGGGLVQAGGSLRLSCAASGSTFNFNIMGWYRQVPGKQRELVAVINSGGSADYTEDVKGRFTISRDNAKSIMYLQMNSLKPEDTAVYYCNAKKVEPTLFTTTYWGQGTQVTVSS
With B9, the binding result in assay [1] was “no binding”; in assay [2] it was “binds”.

B10: SR16983-R2-P2-E10 (VHH)
VHH: QLQLVESGGGLVQPGGSLRLSCVLSGSTFGRNVITWYRQPPGKQREFIAMITTSGSTRYADSVKGRFTMSRDTAKNTAFLQMSNLKLEDTAVYYCWTAIAGQGEYWGQGTQVTVSS
As to B10, the binding result was “no binding” in assay [1] and “binds” in assay [2].

B11: SR16983-R4-P1-C07 (VHH)
VHH: EVQLVESGGGVVQAGGSLRLSCVLSGNTFGDNVITWYRQPPGKQREFIAMITKSGSTRYADSVKGRFTMSRDTAKNTAFLQMSSLKVEDTAVYYCWTAIAGQGEYWGQGTQVTVSS
Turning to B11, the values for the binding result in assay [1] and in assay [2] were “no binding” and “binds”, respectively.

B12: SR16983-R3P2H05 (VHH)
VHH: QLQLVESGGGLVQPGGSLRLACAASGFSFDDYAIGWFRQAPGKEREGVSCITSDGSTYYADSVKGRFTISSDYAKNTVHLQMNSLKPEDTAVYYCARGGLLLPKPELFDDWGQGTQVTVSS
B12: the binding result is reported as “no binding” in assay [1] and “binds” in assay [2].

B13: SR16983-R3-P3-C06 (VHH)
VHH: QLQLVESGGGLVQPGGSLRLSCAASGFTFSTKWMYWVRQGPGKGLEWVSTIDASGGSTYYADSVKGRFTISRDNTEKKVYLQMNSLESADTAVYYCARSAGGQFRGRGTQVTVSS
With B13, the binding result is recorded as “no binding” in assay [1] and “binds” in assay [2].

B14: SR16983-R3P2D09 (VHH)
VHH: QVQLVESGGGLVQAGGSLRLSCAASGRTVGSYAMGWFRQAPGKEREFLAAFSRSTGNTVYADSVKGRFTISRDDAKNTLYLQMNSLKPEDTAVYYCAARASINYNYANWPYWGQGTQVTVSS
Regarding B14, the binding result is recorded as “no binding” in assay [1] and “binds” in assay [2].

B15: SR16983-R3-P3-G03 (VHH)
VHH: QVQLVESGGGLVQAGGSLRLSCAASGRTVGSYVMGWFRQAPGKERELLAAFSRSTGNTVYADSVKGRFTISRDDAKNTLYLQMNSLKPEDTAVYYCAARASINYNYANWPYWGQGTQVTVSS
Take B15: the results for the binding result in assay [1] and in assay [2] were “no binding” and “binds”, respectively.

B16: SR16983-R3-P3-F04 (VHH)
VHH: QLQLVESGGGLVQAGGSLRLSCAASGRTVGSYAMGWFRQAPGKEREFLAASSRSTGNTVYADSVKGRFTISRDDAKNTLYLQMNSLKPEDTAVYYCAARASINYNYANWPYWGQGTQVTVSS
Regarding B16, the binding result is listed as “no binding” in assay [1] and “binds” in assay [2].

B17: SR16983-R3P2G08 (VHH)
VHH: QLQLVESGGGLVQAGGSMRLSCTASGSTVRVTAGGWYRQAPGNERELVADIDNGGSTTYADSVKGRFTISRDNAKNAVDLQMNSLKPEDTAVYRCFVIAIPDSAPRPRAYWGQGTQVTVSS
B17: the binding result is on record as “no binding” in assay [1] and “binds” in assay [2].

B18: SR16983-R3P2H01 (VHH)
VHH: QLQLVQSGGGLVQAGGSLRLSCTASGSTVRVTAGGWYRQTPGNERELVADIDNGGSTTYADSVKGRFTISRDNAKNAVDLQMNSLKPEDTAVYRCFVIAIPDSAPRPRAYWGQGTEVTVSS
Take B18: the binding result in assay [1] was “no binding”.

B19: SR16983-R2-P2-G11 (VHH)
VHH: QVQLVESGGGLVQAGGSLRLSCAASGTTFSFNYMGWYRQAPGNQRDLVARISSGGITNYADSVKGRFTISGDNAKNVVYLQMNSLKPEDTARYYCFYNGHLNKWGQGTQVTVSS
As for B19, the binding result in assay [1] was “no binding”; in assay [2], “binds”.

B20: SR16983-R3-P5-C03 (VHH)
VHH: QLQLVESGGGLVQAGGSLRLSCAASGTTFSFVYMGWYRQAPGNQRELVARLSSDGSTNYADSVKGRFLISGDNAKNTVYLQMNSLKPEDTARYYCFYNGHLNKWGQGTQVTVSS
Consider B20, for which the binding result in assay [1] was “no binding”; in assay [2], “binds”.

B21: SR16983-R3-P2-B02 (VHH)
VHH: QLQLVESGGGLVQAGGSLRLSCAASGTTFSFVYMGWYRQAPGNQRDLVARISSDGSTNYADSVKGRFTISGDNAKNIVYLQMNSLKPEDTARYYCFYNGHLNKWGQGTQVTVSS
For B21, the values for the binding result in assay [1] and in assay [2] were “no binding” and “binds”, respectively.

B22: SR16983-R2-P5-H07 (VHH)
VHH: QVQLVESGGGLVQAGGSLRLSCAASGTTFSFVYMGWYRQAPGNQRELVARISSDGSTNYSDSVKGRFLISGANAKNTVYLQMNSLKPEDTARYYCFYNGHLNKWGQGTQVTVSS
Take B22: the binding result is reported as “no binding” in assay [1] and “binds” in assay [2].

B23: SR16983-R3-P4-F06 (VHH)
VHH: QLQLVESGGGLVQAGGSLRLSCEASRTTFSFNYMGWYRQAPGNQRDLVARISSGGITNYADSVKGRFTISGDNAKNTVYLQMNSLKPEDTARYYCFYNGHLNKWGQGTQVTVSS
For the molecule B23, the binding result in assay [1] is listed as “no binding”; in assay [2] it was “binds”.

B24: SR16983-R3-P2-G05 (VHH)
VHH: QLQLVESGGGLVQTGGSLRLSCAASGTTFSFVYMGWYRQAPGNQRDLVARISSDGSTNYADSVKGRFTISGGNAKNTVYLQMNSLKPEDTARYYCFYNGHLNKWGQGTQVTVSS
For the molecule B24, the values for the binding result in assay [1] and in assay [2] were “no binding” and “binds”, respectively.

B25: SR16983-R3-P2-E09 (VHH)
VHH: QLQLVESGGGLVQAGGSLRLSCAASGTTFSFNYMGWYRQAPGNQRDLVARISSGGSTNYADSVKGRFTISADNAKNTVYLQMNSLKPEDTARYTCFWNGYTNKWGQGTQVTVSS
With B25, the binding result in assay [1] is reported as “no binding”; in assay [2], “binds”.

B26: SR16983-R2-P3-F07 (VHH)
VHH: QLQLVESGGGLVQAGGSLRLSCAASGTTFDMNSMGWYRQAPGFKRDLVATISIGGDTNYTDSVKGRFTISRDNAKNTVYMQMNSLKPEDTAVYYCNAERIWPNRRSFWGQGTQVTVSS
For the molecule B26, the binding result was “no binding” in assay [1] and “binds” in assay [2].

B27: SR16983-R3-P5-D01 (VHH)
VHH: QLQLVESGGGLVQAGGSLRLSCAASGTTFDMNSIGWYRQAPGKQRELVATISIGGSTNYADSVKGRFTISRGNAKNTVYMQMNSLKPEDTAVYYCNAERIWPNRRTFWGQGTQVTVSS
Consider B27, for which the binding result in assay [1] was “no binding”; in assay [2], “binds”.

These data come from US20250163183A1 (COAGULANT THERAPEUTICS, published 2025).
